Test [1] addresses T1, mouse TfR on CHO cells (mouse, UniProt Q62351 1-763).
T1 construct: also called mouse TfR/CHO
In words: flow cytometry on mouse TfR/CHO cells.
Description: Subsequently, an epitope analysis for various types of TfR antibodies was carried out.

Test [2] addresses T2, huTfR with mouse protease-like domain (human/mouse chimera).
T2 construct: His tag added; also called chimeric protein of human TfR extracellular domain with mouse protease-like domain
T2 chain: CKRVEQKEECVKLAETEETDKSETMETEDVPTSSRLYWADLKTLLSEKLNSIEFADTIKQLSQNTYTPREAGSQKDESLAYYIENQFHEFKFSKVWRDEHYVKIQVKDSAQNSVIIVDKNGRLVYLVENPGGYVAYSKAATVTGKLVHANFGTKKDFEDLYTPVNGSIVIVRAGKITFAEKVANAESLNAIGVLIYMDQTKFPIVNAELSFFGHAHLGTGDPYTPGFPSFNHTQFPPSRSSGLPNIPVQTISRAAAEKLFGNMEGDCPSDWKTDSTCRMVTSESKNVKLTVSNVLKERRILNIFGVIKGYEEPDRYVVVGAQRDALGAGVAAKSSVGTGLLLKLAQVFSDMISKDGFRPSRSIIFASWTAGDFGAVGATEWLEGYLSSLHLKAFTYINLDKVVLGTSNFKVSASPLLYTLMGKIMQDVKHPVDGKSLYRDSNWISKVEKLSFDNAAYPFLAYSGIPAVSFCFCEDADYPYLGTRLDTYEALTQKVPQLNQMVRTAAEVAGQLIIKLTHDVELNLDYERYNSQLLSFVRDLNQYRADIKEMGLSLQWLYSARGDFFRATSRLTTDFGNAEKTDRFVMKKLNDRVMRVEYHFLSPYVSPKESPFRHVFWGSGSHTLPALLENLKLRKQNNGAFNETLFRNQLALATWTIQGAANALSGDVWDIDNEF
Nature of the test: ELISA on immobilized chimeric TfR; grade = binding relative to His-huTfR (++ 0.5 or more, + 0.2 to less than 0.5).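 Further: Anti-TfR antibodies incubated 1 h at room temperature on plate-coated antigen, bound antibody detected via HRP-labelled anti-human IgG Fc with TMB substrate.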
Description: (§1) ELISA was carried out by the following method. To a 96-well immunoplate (NUNC, Inc.) on which an antigen protein was immobilized, 1% (w/v) BSA-PBS(−) pH 7.0 without KCl (hereinafter referred to as blocking solution, Nacalai Tesque, Inc.) was added to perform blocking at room temperature, and thereafter, the anti-TfR antibody diluted with the same solution was added thereto and a reaction was allowed to proceed at room temperature for 1 hour. Thereafter, washing was performed with 0.05% (w/v)-tPBS (1×) without KCl (pH 7.2) (hereinafter referred to as washing solution, Nacalai Tesque, Inc.), Anti-Human IgG (Fc) Goat IgG Fab″-HRP (IBL, Inc.) diluted with the blocking solution was added thereto, and a reaction was allowed to proceed at room temperature for 1 hour. Thereafter, washing was performed with the washing solution, and 1-Step (registered trademark) Ultra TMB-ELISA Substrate Solution (Thermo, Inc.) was added thereto, and a reaction was allowed to proceed at room temperature. The coloring reaction was stopped by adding a 5 N HCl solution, and an absorbance at a wavelength of 450 nm (reference wavelength: 570 nm) was measured using a plate reader (EPOCH 2: BioTek Instruments, Inc.).
(§2) Further, a value obtained by subtracting the absorbance at the reference wavelength of 570 nm from the absorbance at a wavelength of 450 nm was regarded as the binding activity to any of various types of antigen proteins, and a case where a value obtained by dividing the binding activity to any of various types of chimeric TfR by the binding activity to His-huTfR was 0.5 or more was denoted by ++, a case where the value was 0.2 or more and less than 0.5 was denoted by +, and a case where the value was less than 0.2 was denoted by −.

The target of test [3] is T3, human EGFR on cells (human, UniProt P00533 25-1210).
T3 construct: also called membrane-associated EGFR on OE21 cells
In words: flow cytometry on OE21 cells; x axis PE-A [E].

Test [4] deals with T4, monkey TfR on CHO cells (monkey).
T4 construct: also called monkey TfR/CHO cells
T4 chain: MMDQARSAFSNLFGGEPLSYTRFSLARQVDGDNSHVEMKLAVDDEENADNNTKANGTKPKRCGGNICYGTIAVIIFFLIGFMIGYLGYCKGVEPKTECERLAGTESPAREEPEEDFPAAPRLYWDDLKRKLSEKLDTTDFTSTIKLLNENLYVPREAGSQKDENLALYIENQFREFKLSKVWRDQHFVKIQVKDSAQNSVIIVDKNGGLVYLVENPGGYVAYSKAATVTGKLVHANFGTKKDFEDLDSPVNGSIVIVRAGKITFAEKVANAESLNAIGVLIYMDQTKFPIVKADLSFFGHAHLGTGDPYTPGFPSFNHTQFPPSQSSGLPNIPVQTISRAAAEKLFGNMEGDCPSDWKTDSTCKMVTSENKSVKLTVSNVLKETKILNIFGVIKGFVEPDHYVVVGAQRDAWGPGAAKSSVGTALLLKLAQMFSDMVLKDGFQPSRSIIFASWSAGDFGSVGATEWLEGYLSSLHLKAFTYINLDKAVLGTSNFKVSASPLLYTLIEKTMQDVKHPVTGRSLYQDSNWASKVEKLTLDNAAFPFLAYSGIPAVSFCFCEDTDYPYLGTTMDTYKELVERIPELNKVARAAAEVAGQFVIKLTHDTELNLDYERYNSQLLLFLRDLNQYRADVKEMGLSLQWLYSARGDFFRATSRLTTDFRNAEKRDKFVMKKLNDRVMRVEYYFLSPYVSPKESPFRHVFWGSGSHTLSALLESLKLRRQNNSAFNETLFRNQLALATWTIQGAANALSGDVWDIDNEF
Nature of the test: flow cytometry of monoclonal phage (scFv) on monkey TfR/CHO cells.
Description: (§3) After the reaction was allowed to proceed under 4° C. for 30 minutes, each well was washed 3 times with PBS-T.

In test [5] the target is T5, human TfR on cells (human, UniProt P02786 1-760).
T5 construct: also called human TfR/CHO; human TfFR/CHO cells
In words: flow cytometry of monoclonal phage (scFv) on human TfR/CHO cells.
Description: as §3

For test [6], the target named is T6, chimeric TfR A02 (human/mouse chimera, UniProt P02786 89-760).
T6 construct: also called D352S-S355A-D356R-K358N
T6 chain: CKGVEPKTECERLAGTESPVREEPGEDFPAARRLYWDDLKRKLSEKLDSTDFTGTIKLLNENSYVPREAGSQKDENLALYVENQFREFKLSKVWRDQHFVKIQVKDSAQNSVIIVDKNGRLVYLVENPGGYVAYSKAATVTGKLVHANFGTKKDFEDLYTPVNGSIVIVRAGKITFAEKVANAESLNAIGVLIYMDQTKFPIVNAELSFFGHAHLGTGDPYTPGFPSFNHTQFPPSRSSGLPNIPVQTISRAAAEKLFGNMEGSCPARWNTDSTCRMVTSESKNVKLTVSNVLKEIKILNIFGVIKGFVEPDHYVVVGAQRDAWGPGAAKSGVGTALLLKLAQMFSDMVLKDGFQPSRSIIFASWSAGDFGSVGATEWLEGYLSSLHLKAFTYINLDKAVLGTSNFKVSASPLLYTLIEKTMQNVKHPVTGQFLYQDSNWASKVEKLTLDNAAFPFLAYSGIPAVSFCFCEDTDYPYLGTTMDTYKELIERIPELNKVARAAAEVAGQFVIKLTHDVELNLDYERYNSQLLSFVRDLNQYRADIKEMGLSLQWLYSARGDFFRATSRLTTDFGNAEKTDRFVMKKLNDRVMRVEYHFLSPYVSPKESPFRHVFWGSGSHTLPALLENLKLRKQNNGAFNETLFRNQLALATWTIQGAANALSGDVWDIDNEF
Nature of the test: ELISA on immobilized chimeric TfR.
Description: as §1, §2

Test [7] addresses T7, huTfR with mouse apical domain (human/mouse chimera, UniProt P02786 89-760).
T7 construct: His tag added; also called chimeric protein of human TfR extracellular domain with mouse apical domain
T7 chain: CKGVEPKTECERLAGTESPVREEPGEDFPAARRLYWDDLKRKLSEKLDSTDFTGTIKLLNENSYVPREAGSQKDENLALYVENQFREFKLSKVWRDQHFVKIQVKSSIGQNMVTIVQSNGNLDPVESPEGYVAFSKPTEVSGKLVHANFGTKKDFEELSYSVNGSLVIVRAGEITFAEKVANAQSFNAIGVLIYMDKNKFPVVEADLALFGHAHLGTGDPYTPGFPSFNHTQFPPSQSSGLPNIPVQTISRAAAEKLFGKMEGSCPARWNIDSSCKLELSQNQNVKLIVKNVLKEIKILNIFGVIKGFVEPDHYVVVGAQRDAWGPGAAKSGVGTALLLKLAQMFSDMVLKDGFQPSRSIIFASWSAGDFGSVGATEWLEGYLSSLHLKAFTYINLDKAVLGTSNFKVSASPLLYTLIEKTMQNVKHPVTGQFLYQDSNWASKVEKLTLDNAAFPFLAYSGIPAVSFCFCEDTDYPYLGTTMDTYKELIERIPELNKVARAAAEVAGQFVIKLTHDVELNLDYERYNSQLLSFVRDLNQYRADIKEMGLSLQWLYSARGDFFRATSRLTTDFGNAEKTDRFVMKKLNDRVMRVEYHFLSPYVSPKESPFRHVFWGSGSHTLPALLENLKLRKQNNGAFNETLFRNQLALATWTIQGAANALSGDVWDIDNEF
In words: ELISA on immobilized chimeric TfR.
Description: as §1, §2

Test [8] addresses T8, chimeric TfR A07 (human/mouse chimera, UniProt P02786 89-760).
T8 construct: also called M365L-V366E-E369Q
In words: ELISA on immobilized chimeric TfR.
Description: as §1, §2

The target of test [9] is T9, chimeric TfR A03 (human/mouse chimera, UniProt P02786 89-760).
T9 construct: also called D245E-K261E
In words: ELISA on immobilized chimeric TfR; grade = binding relative to His-huTfR (++ 0.5 or more, + 0.2 to less than 0.5).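 Further: Anti-TfR antibodies incubated 1 h at room temperature on plate-coated antigen, bound antibody detected via HRP-labelled anti-human IgG Fc with TMB substrate.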
Description: as §1, §2

Test [10] has as its target T10, chimeric TfR A05 (human/mouse chimera, UniProt P02786 89-760).
T10 construct: also called P249S-L274F
Described as above.
Description: as §1, §2

Test [11] has as its target T11, chimeric TfR A14 (human/mouse chimera, UniProt P02786 89-760).
T11 construct: also called D204Q-K205S-E369Q
The description is as above.
Description: as §1, §2

Test [12] concerns the target T12, chimeric TfR A04 (human/mouse chimera, UniProt P02786 89-760).
T12 construct: also called D245E-K261E-D356R
The description is as above.
Description: as §1, §2

B1: R327 (antibody, V domains shown)
VH: EVQLVETGGGLVQPGGSLRLSCAASGFSFDKYTMNWVRQAPGKGLEWVSVISNGGVSTDYADSVKGRFTVSRDNSKNTLYLQMNSLRAEDMATYYCARASQPWLYRTGADVWGQGTMVTVSS
VL: not shown
notes: also called anti-TfR antibody R327
On to B1, for which, in test [1], the binding result is “no binding”. Further, in test [2], the “ratio of ELISA binding activity (A450-A570) to chimeric TfR over that to His-huTfR” value (“ratio of ELISA binding activity” for short) is at least 0.5 ratio.

B2: TfR1071 (antibody, V domains shown)
VH: YVQLVESGGGLVQPGGSLRLSCAASGFSFDKYTMNWVRQAPGKGLEWVSVISNGGVSTDYADSVKGRFTVSRDNSKNTLYLQMNSLRAEDMATYYCARASQPWLYRTGADVWGQGTLVTVSS
VL: not shown
notes: also called anti-TfR antibody TfR1071
Regarding B2, in test [1], the binding result is listed as “no binding”. Moreover, the “ratio of ELISA binding activity” value in test [2] was at least 0.5 ratio.

B3: KME09 (antibody, V domains shown)
VH: QVQLVQSGAEVKKPGSSVKVSCKASGGTFSSFAWGWVRQAPGQGLEWMGEIRPGFGTEIYAQNFQDRVTFITDEATSTTYMELSSLKSEDTAVYYCARGLLRSGYIDNPCDIWGQGTMVTVSS
VL: DIQMTQSPSSLSASVGDRVTITCRASQGISSWLAWYQQKPEKAPKSLIYAASSLQSGVPSRFSGSGSGTDFTLTISSLQPEDFATYFCQQYYNYPYTFGQGTKLEIK
notes: IgG4PE or IgG4PE R409K; also called anti-EGFR antibody KME09
As to B3, in test [3], the binding result is listed as “binds”.

B4: TfR1007 (antibody, V domains shown)
VH: EVQLVESGGGLVQPGGSLSLSCAASGFSFKGYSMSWVRQAPGKGLEWVSSLSNGGGSSYYADSVKGRFTISRDNSKNTLYLQMNSLRAEDTAVYYCAKTLGAYYIKSAMDVWGQGTTVTVSS
VL: not shown
notes: also called anti-TfR antibody TfR1007
On to B4, for which the “ratio of ELISA binding activity” value in [2] was at least 0.5 ratio.

B5: PSM4072 (antibody, V domains shown)
VH: EVQLVETGGGLVQPGGSLRLSCTASGFTFESHAMYWVRQAPGKGLEWVSGISNGGSSTEYADSVRGRFTISRDNSKNTVYLQMNSLRAEDTAVYYCARPRSPYLFYDAAGVWGQGTLVTVSS
VL: not shown
notes: as IgG it has the constant region of human IgG4PE or IgG4PE R409K; also called anti-TfR antibody PSM4072
For the molecule B5, the binding result in [4] and in test [5] was “binds” throughout.

B6: cyno163 (antibody, V domains shown)
VH: EVQLVESGGGLVQPGGSLRLSCAASGFTFSTYAMSWVRQAPGKGLEWVSGISNGGSSTEYADSVRGRFTISRDNSKNTVYLQMNSLRAEDTAVYYCARPRSPYLFYDAAGVWGQGTMVTVSS
VL: not shown
notes: as IgG it has the constant region of human IgG4PE or IgG4PE R409K; also called anti-TfR antibody cyno163
Consider B6, for which the binding result in [4] and in [5] was “binds” throughout.

B7: cyno292 (antibody, V domains shown)
VH: QVQLVQSGGGLVKPGGSLRISCTTSGFPFDGYTMTWVRQAPGKGLEWVSSISNGGSTIFVSDSVRGRFTISRDNAKNSLYLQMNNVGAEDTAVYYCARARDAYGWTLPSDIWGQGTMVTVSS
VL: not shown
notes: also called anti-TfR antibody cyno292
Consider B7, for which the binding result is listed as “no binding” in test [1] and “binds” in test [4]. The “ratio of ELISA binding activity” value in test [6] is under 0.2 ratio; in test [7], under 0.2 ratio; in test [8], under 0.2 ratio; in [9] it was at least 0.5 ratio; in test [2], at least 0.5 ratio; in [10] it was at least 0.5 ratio. Besides, the “ratio of ELISA binding activity” value in test [11] and in [12] was at least 0.5 ratio in each case.

The values above are taken from US20220017635A1 (Kyowa Kirin, published 2022).
